Assay results from patent publication US11643670B2, “Methods of enhancing chromosomal homologous recombination” (Massachusetts Institute of Technology, priority 2018, dated 2023).

System: R1684H locus
Test: Genotyping of F1 offspring of F0 Chd2^R1684H/R1684H animals made by the IVF strategy
Assay type: in vivo, mouse
Conditions: F0 homozygotes (IVF strategy including RAD51) crossed with wildtype C57Bl/6N
Experimental: Tail snips (˜0.5 cm length) were collected from animals, placed in 75 μL alkaline lysis buffer (25 mM NaOH, 0.2 mM EDTA), and incubated at 95° C. for 30 minutes. Digestion was stopped via addition of 75 μL neutralization buffer (40 mM Tris-HCl pH 5.0). Samples were stored at 4° C. until genotyping.
Chd2^R1684H genotyping was performed via a two-step, nested approach. Except for experiments described in FIGS. 3A-3G, all 8 μL of embryo DNA were used as input for the initial, long round of PCR. Genotyping of mouse pups and adult animals was performed using 2 μL of purified tail DNA. For all embryo genotyping, reactions mixtures were set up in a UV-sterilized laminar flow hood using sterile reagents and filter tips to avoid contamination. All PCR was performed using Biolase DNA Polymerase (Bioline), fresh aliquots of dNTPs (New England Biolabs), and 2% DMSO (final concentration). Primer pair #1 was used for FIGS. 1A-1E, FIGS. 2A-2E, FIGS. 3A-3G, FIG. 5, FIGS. 7A-7C, FIG. 8, and FIG. 9. All other experiments utilized primer pair #2 to further rule out large deletions that could disrupt primer binding sites. 20 cycles of amplification were performed using 30 second extension and annealing times and an annealing temperature of 67° C. Nested PCR was then performed using 2 μL of the initial 25 μL PCR reaction as input. […]

B1: RAD51: recombinant human strand exchange protein RAD51 (Creative Biomart RAD51-134H), transcript variant 4 (protein, UniProt Q06609 2-339, looked up)
DNA repair protein RAD51 …: AMQMQLEANADTSVEEESFGPQPISRLEQCGINANDVKKLEEAGFHTVEAVAYAPKKELINIKGISEAKADKILAEAAKLVPMGFTTATEFHQRRSEIIQITTGSKELDKLLQGGIETGSITEMFGEFRTGKTQICHTLAVTCQLPIDRGGGEGKAMYIDTEGTFRPERLLAVAERYGLSGSDVLDNVAYARAFNTDHQTQLLYQASAMMVESRYALLIVDSATALYRTDYSGRGELSARQMHLARFLRMLLRLADEFGVAVVITNQVVAQVDGAAMFAADPKKPIGGNIIAHASTTRLYLRKGRGETRICKIYDSPCLPEAEAMFAINADGVGDAKD
  F1 offspring heterozygous for the R1684H mutation: 100%
